In article PMC3386239:

Target: Skp1 (mouse, endogenous in RAW264.7 cells) (mouse (endogenous in RAW264.7)) (UniProt Q9WTX5)
Sequence of UniProt Q9WTX5 (Q9WTX5 whole entry): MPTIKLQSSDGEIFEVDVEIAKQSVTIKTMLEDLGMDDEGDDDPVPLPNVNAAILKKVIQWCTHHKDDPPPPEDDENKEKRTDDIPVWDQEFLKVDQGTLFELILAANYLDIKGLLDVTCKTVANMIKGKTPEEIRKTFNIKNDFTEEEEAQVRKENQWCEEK

Substance	NFκB-driven luciferase in RAW264.7 cells infected with ΔgogB complemented with GogBΔ264–352 (F-box motif deleted), fold of wild type Salmonella (fold of wild type)	NFκB-driven luciferase in RAW264.7 cells infected with ΔgogB complemented with GogB-NT (C-terminal domain deleted), fold of wild type Salmonella (fold of wild type)
GogB Δ264–352 (in-frame deletion of the F-box-like domain), HA-tagged, delivered by the T3SS (natural protein)	4	
GogB-NT (amino acids 1-253, N-terminal LRR domain), HA-tagged, delivered by the T3SS (domain or fragment)		4
